The values below come from PMC7530648 (2020).

No end group written: not given here.

The target in the experiment is T1, S8-meSRK (S8-SRK ectodomain containing 11 mutations), purified, tags removed (Brassica rapa, three sugar chains (seen in the crystal structure)).
T1 chain: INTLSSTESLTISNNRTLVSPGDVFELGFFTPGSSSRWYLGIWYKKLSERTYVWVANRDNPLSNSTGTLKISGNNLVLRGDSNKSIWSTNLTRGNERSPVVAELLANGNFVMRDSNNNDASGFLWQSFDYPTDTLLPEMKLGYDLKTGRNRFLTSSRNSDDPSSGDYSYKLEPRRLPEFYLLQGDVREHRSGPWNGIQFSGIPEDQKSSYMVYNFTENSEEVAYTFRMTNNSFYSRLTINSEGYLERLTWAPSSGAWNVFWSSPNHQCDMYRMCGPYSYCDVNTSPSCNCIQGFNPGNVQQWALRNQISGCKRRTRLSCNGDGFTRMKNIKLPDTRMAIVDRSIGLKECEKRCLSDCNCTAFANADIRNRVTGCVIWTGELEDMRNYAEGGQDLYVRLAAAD
Description: ITC.

B1: biotin-S8-SP11, chemically synthesized (ligand)
chain: NLMKRCTRGFRKLGKCTTLEEEKCKTLYPRGQCTCSDSKMNTHSCDCKSC
modifications: not fully specified; cysteine pairing not given here; also: biotin-S8 (position not given here)
B1 gave a Kd of 20.2 nM.
